# Experimental data taken from US20240226118A1 (US Dept. of Health and Human Services, published 2024).
# Molecular target: T1, ATP1A1 genetically fused to yellow fluorescent protein (YFP) tag (human, UniProt P05023 1-1023)
# T1 construct: Stood in lysates of RSV-infected H1299 ATP1A1-YFP cells and was pulled down with YFP-specific antibodies; The other subunits of the Na+,K+-ATPase complex may have been present; also called ATP1A1-YFP; ATPase Na+/K+ transporting subunit alpha 1; not shown: yellow fluorescent protein (YFP) tag
# Assay: co-immunoprecipitation
binder,measurement,value
"RSV attachment (G) glycoprotein (other, Viral protein in lysates of RSV-infected cells; also called RSV G) MSKNKDQRTAKTLERTWDTLNHLLFISSCLYKLNLKSVAQITLSILAMIISTSLIIAAIIFIASANHKVTPTTAIIQDATSQIKNTTPTYLTQNPQLGISPSNPSEITSQITTILASTTPGVKSTLQSTTVKTKNTTTTQTQPSKPTTKQRQNKPPSKPNNDFHFEVFNFVPCSICSNNPTCWAICKRIPNKKPGKKTTTKPTKKPTLKTTKKDPKPQTTKSKEVPTTKPTEEPTINTTKTNIITTLLTSNTTGNPELTSQMETFHSTSSEGNPSPSQVSTTSEYPSQPSSPPNTPRQ",binding result,no binding
